In assay [1] the target is T1, E-selectin expressed on CHO cells (CHO:E-selectin) (UniProt P16581 22-610, limits assumed).
T1 construct: whole, on cells; also called E-selectin expressing CHO cells; CHO cells which express E-selectin
T1 sequence (looked up): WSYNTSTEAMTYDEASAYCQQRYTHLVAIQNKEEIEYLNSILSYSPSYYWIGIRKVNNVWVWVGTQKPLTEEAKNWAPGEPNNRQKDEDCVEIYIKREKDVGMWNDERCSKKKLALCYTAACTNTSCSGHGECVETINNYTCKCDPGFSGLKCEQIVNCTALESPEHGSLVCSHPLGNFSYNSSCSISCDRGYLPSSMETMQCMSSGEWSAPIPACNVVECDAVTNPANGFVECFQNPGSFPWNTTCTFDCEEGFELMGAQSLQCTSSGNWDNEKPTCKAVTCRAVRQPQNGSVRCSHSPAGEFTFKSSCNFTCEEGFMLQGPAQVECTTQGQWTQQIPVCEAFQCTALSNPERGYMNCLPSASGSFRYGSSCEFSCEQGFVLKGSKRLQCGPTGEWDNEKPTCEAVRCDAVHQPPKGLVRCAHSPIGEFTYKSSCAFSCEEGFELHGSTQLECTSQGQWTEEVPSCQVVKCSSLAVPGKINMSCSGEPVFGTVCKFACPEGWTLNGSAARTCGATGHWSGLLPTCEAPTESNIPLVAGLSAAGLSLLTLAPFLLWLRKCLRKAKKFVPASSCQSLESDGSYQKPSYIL
The experiment in a line: plate coated with chimera; adhesion of 3H-labelled CHO:E-selectin cells (FIG. 15). The procedure:
(§1) Quantitative adhesion of CHO:P-selectin, CHO:E-selectin and CHO:L-selectin expressing cells was performed as described in Example 4(c), with the following modifications: COS cell and antibodies were omitted. Instead, 48-well microtiter plates (Costar) were coated for 16 hours at 4° C. with varying quantities of protein A-purified soluble PSGL-1/Fc chimeras. The unbound material was removed and the coated wells were treated with Hank's buffered saline (HBS) with 1 mg/ml BSA and 2 mM CaCl_2 for 1 hour at 4° C. Tritium labeled CHO selectin expressing cells were added and binding quantitated as described in Example 4(c).

Assay [2] concerns the target T2, P-selectin expressed on the surface of CHO cells (CHO:P-selectin cell line) (UniProt P16109 42-830, limits assumed).
T2 construct: whole, on cells; also called P-selectin expressing CHO cells
T2 sequence (looked up): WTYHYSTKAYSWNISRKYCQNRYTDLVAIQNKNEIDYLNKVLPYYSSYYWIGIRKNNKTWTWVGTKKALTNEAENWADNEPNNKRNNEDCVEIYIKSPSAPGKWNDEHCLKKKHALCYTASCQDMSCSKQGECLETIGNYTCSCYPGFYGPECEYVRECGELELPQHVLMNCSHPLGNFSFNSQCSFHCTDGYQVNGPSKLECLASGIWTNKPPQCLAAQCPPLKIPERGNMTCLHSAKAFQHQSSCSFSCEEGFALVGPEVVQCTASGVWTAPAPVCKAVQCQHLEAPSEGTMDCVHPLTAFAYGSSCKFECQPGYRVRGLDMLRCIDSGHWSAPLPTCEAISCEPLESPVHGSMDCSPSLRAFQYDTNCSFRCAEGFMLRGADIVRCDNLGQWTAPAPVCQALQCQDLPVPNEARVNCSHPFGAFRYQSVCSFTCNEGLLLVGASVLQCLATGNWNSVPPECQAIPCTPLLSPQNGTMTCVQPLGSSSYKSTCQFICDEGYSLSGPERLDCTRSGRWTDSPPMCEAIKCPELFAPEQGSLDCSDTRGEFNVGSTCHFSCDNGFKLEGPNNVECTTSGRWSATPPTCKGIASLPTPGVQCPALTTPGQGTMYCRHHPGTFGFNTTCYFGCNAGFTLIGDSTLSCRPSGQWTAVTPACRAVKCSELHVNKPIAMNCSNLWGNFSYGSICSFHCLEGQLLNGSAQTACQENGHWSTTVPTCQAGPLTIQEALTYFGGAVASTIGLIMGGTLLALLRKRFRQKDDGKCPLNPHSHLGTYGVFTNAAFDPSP
Kind of assay: plate coated with chimera; adhesion of 3H-labelled CHO:P-selectin cells (FIG. 14). Here is the method:
as §1

Assay [3] deals with T3, chimeric protein comprising the extracellular domain of human E-selectin and the Fc portion of human IgG1 … (human, UniProt P16581 22-556).
T3 construct: extracellular domain; Built analogously to LEC-γ1; also called soluble E-selectin chimera; immobilized E-selectin; not shown: Fc portion of human IgG1
T3 sequence (looked up): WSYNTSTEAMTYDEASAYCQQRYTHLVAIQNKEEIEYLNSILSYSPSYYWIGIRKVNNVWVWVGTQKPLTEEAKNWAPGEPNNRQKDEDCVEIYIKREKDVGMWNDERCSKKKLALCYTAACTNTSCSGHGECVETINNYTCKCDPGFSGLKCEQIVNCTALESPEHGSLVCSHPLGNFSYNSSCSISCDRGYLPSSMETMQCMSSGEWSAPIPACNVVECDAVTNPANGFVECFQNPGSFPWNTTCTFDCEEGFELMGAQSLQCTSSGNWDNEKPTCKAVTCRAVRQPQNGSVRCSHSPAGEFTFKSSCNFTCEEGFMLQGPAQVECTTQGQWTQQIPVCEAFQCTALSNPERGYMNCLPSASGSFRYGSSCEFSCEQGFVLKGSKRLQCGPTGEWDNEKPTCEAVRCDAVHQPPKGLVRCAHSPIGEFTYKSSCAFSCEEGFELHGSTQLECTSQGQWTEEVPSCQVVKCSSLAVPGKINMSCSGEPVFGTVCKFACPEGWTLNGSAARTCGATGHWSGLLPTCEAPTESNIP
Kind of assay: affinity precipitation from U937 membrane extracts; trace capture not excluded by the filing.

For assay [4], the target named is T1, E-selectin expressed on CHO cells …. The experiment in a line: plate coated with chimera; adhesion of CHO:E-selectin cells (FIG. 20). Here is the method:
as §1

The target in assay [5] is T2, P-selectin expressed on the surface of …. The experiment in a line: plate coated with chimera; adhesion of CHO:P-selectin cells (FIG. 19). Here is the method:
as §1

B1: ΔY148.Fc, amino acids 42-189 of SEQ ID NO:2 with amino acids 46-52 deleted (Fc fusion)
chain: QATEFLPETEPPEMLRNSTDTTPLTGPGTPESTTVEPAARRSTGLDAGGAVTELTTELANMGNLSTDSAAMEIQTTQPAATEAQTTPLAATEAQTTRLTATEAQTTPLAATEAQTTPPAATEAQTTQPTGLEAQTTAPAAM
modifications: glycosylated, co-expressed with 3/4FT
notes: also called pED.ΔY148.Fc product; not shown: NotI junction/linker of pED.Fc; Fc region of a human IgG1
For the molecule B1, the binding result is on record as “binds” in assay [1] and “no binding” in assay [2].

B2: CD43 (leukosialin) of U937 cells (other, human, UniProt P16150 20-400, looked up)
chain: STTAVQTPTSGEPLVSTSEPLSSKMYTTSITSDPKADSTGDQTSALPPSTSINEGSPLWTSIGASTGSPLPEPTTYQEVSIKMSSVPQETPHATSHPAVPITANSLGSHTVTGGTITTNSPETSSRTSGAPVTTAASSLETSRGTSGPPLTMATVSLETSKGTSGPPVTMATDSLETSTGTTGPPVTMTTGSLEPSSGASGPQVSSVKLSTMMSPTTSTNASTVPFRNPDENSRGMLPVAVLVALLAVIVLVALLLLWRRRQKRRTGALVLSRGGKRNGVVDAWAGPAQVPEEGAVTVTVGGSGGDKGSGFPDGEGSSRRPTLTTFFGRRKSRQGSLAMEELKSGSGPSLKGEEEPLVASEDGAVDAPAPDEPEGGDGAAP
modifications: native myeloid glycosylation
For the molecule B2, the binding result in assay [3] is “no binding”.

B3: H24.Q70.148.Fc (Fc fusion)
chain: QATEYEYLDYDFLPETEPPEMLRHSTDTTPLTGPGTPESTTVEPAARRSTGLDAGGAVTELTTELANMGQLSTDSAAMEIQTTQPAATEAQTTPLAATEAQTTRLTATEAQTTPLAATEAQTTPPAATEAQTTQPTGLEAQTTAPAAM
modifications: glycosylated, co-expressed with 3/4FT
notes: also called pED.H24.Q70.148.Fc product; not shown: NotI junction/linker of pED.Fc; Fc region of a human IgG1
As for B3, the binding result in assay [4] and in assay [5] was “binds” throughout.

Values taken from patent publication US7563760 (GENETICS INSTITUTE, dated 2009).
